Experimental data: patent US20060270596A1 (CENTRE NATIONAL DE LA RECHERCHE SCIENTIFIQUE CNRS, published 2006)

How the values were obtained:
[1] = target: T1, human THAP2, full length (human, UniProt Q9H0W7 1-228); experiment: yeast two-hybrid, Par4DD bait
T1 construct: Two-hybrid fusion or 35S-labelled in vitro translation product

[2] = target: T2, THAP1-C1 deletion mutant (amino acids 90-213) (human, UniProt Q9NVV9 90-213); experiment: in vivo interaction test: GFP-THAP1 mutant and myc-Par4DD co-expressed in primary human endothelial cells, confocal immunofluorescence
T2 construct: Gal4 fusion, in vitro translation product or GFP fusion according to assay; also called THAP1-CL; THAP1ΔTHAP
T2 sequence: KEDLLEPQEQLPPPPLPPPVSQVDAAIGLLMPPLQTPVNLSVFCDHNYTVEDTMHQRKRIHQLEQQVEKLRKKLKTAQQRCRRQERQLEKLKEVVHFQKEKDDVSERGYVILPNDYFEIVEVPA
From the text: (§1) To provide further evidence for a physiological interaction between THAP1 and Par4 in vivo interactions between THAP1 and PAR4 were investigated. For that purpose, confocal immunofluorescence microscopy was used to analyze the subcellular localization of epitope-tagged Par4DD in primary human endothelial cells transiently cotransfected with pEF-mycPar4DD eukaryotic expression vector and GFP or GFP-THAP1 expression vectors (pEGFP.C2 and pEGFP.C2-THAP1, respectively). To generate pEF-mycPar4DD, mycPar4DD (amino acids 250-342) was amplified by PCR using pGBKT7-Par4DD as template, with primers myc.BD7 (5′-[…]-3′) (SEQ ID NO: 195) and Par4.9 (5′-[…]-3′) (SEQ ID NO: 196), and cloned into the XbaI and NotI sites of the pEF-BOS expression vector (Mizushima and Nagata, Nucleic Acids Research, 18:5322, 1990). Primary human endothelial cells from umbilical vein (HUVEC, PromoCell, Heidelberg, Germany) were grown in complete ECGM medium (PromoCell, Heidelberg, Germany), plated on coverslips and transiently transfected in RPMI medium using GeneJammer transfection reagent according to manufacturer instructions (Stratagene, La Jolla, Calif., USA). Cells co-transfected with pEF-mycPar4DD and GFP-tagged expression constructs were allowed to grow for 24 h to 48 h on coverslips. Cells were washed twice with PBS, fixed for 15 min at room temperature in PBS containing 3.7% formaldehyde, and washed again with PBS prior to neutralization with 50 mM NH₄Cl in PBS for 5 min at room temperature. Following one more PBS wash, cells were permeabilized 5 min at room temperature in PBS containing 0.1% Triton-X100, and washed again with PBS. Permeabilized cells were then blocked with PBS-BSA (PBS with 1% bovine serum albumin) for 10′ and then incubated 2 hr at room temperature with mouse monoclonal antibody anti-myc epitope (mouse IgG1, 1/200, Clontech) diluted in PBS-BSA. Cells were then washed three times 5 min at room temperature in PBS-BSA, and incubated for 1 hr with Cy3 (red fluorescence)-conjugated goat anti-mouse (1/1000, Amersham Pharmacia Biotech) secondary antibodies, diluted in PBS-BSA. After extensive washing in PBS, samples were air dried and mounted in Mowiol. Images were collected on a Leica confocal laser scanning microscope.

[3] = target: T3, THAP1-C2 deletion mutant (amino acids 120-213) (human, UniProt Q9NVV9 120-213); experiment: as above
T3 construct: Gal4 fusion, in vitro translation product or GFP fusion according to assay
T3 sequence: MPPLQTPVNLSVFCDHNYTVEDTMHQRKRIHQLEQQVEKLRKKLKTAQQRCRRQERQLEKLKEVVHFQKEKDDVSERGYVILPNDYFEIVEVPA
From the text: as §1

[4] = target: T4, THAP1-C3 deletion mutant (amino acids 143-213) (human, UniProt Q9NVV9 143-213); experiment: as above
T4 construct: Gal4 fusion, in vitro translation product or GFP fusion according to assay
T4 sequence: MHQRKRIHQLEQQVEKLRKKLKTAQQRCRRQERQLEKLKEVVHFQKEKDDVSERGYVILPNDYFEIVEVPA
From the text: as §1

[5] = target: T5, THAP1-N2 deletion mutant (amino acids 1-166) (human, UniProt Q9NVV9 1-166); experiment: as above
T5 construct: Gal4 fusion, in vitro translation product or GFP fusion according to assay
T5 sequence: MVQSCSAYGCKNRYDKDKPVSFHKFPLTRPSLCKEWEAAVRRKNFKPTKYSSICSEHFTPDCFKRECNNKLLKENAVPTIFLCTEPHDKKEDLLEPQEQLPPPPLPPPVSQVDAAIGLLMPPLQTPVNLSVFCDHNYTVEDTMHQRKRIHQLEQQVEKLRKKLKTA
From the text: as §1

[6] = target: T6, THAP1-N3 deletion mutant (amino acids 1-192) (human, UniProt Q9NVV9 1-192); experiment: as above
T6 construct: Gal4 fusion, in vitro translation product or GFP fusion according to assay
T6 sequence: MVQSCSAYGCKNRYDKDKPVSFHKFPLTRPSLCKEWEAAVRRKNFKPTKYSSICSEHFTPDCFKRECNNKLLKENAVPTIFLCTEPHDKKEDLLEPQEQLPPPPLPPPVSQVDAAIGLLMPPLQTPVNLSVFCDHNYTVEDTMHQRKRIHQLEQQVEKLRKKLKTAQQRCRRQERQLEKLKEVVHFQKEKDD
From the text: as §1

[7] = target: T7, THAP1-N1 deletion mutant (amino acids 1-90) (human, UniProt Q9NVV9 1-90); experiment: as above
T7 construct: Gal4 fusion, in vitro translation product or GFP fusion according to assay; also called zinc finger domain of THAP1
T7 sequence: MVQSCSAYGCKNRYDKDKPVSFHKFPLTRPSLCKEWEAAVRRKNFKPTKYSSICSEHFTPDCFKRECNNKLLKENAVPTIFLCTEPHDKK
From the text: as §1

[8] = target: T8, THAP1ΔQRCRR mutant (deletion of residues 168-172) (human, UniProt Q9NVV9 1-213); experiment: yeast two-hybrid and in vivo interaction assay
T8 sequence: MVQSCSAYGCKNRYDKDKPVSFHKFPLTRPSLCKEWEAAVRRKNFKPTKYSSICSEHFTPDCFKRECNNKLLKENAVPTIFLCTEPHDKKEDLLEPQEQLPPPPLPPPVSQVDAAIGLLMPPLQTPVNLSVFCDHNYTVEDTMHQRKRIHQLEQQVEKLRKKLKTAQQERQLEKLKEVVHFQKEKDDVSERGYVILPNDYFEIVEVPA

T1 sequence (Q9H0W7 whole entry, the tested form may be a part): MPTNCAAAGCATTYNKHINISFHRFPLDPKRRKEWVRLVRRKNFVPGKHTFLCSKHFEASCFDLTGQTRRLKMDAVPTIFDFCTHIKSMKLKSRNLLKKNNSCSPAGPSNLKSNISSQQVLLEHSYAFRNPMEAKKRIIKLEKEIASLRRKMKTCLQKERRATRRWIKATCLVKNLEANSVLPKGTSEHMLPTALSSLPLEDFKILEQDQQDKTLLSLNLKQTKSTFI

B1: Par4 leucine zipper/death domain (Par4DD, amino acids 250-342) (other)
chain: GFPRYNRDANVSGTLVSSSTLEKKIEDLEKEVVTERQENLRLVRLMQDKEEMIGKLKEEIDLLNRDLDDIEDENEQLKQENKTLLKVVGQLTR
notes: Gal4 fusion in two-hybrid; also called myc-Par4DD
B1: binds [1]; binds [2]; binds [3]. B1: binds [4]; no binding [5]; binds [6]. B1: no binding [7]; no binding [8].
